Values quoted from earlier work in paper PMC3161823.

Biological target: Complement factor H (Homo sapiens) (UniProt P08603)
Sequence (P08603 19-1231): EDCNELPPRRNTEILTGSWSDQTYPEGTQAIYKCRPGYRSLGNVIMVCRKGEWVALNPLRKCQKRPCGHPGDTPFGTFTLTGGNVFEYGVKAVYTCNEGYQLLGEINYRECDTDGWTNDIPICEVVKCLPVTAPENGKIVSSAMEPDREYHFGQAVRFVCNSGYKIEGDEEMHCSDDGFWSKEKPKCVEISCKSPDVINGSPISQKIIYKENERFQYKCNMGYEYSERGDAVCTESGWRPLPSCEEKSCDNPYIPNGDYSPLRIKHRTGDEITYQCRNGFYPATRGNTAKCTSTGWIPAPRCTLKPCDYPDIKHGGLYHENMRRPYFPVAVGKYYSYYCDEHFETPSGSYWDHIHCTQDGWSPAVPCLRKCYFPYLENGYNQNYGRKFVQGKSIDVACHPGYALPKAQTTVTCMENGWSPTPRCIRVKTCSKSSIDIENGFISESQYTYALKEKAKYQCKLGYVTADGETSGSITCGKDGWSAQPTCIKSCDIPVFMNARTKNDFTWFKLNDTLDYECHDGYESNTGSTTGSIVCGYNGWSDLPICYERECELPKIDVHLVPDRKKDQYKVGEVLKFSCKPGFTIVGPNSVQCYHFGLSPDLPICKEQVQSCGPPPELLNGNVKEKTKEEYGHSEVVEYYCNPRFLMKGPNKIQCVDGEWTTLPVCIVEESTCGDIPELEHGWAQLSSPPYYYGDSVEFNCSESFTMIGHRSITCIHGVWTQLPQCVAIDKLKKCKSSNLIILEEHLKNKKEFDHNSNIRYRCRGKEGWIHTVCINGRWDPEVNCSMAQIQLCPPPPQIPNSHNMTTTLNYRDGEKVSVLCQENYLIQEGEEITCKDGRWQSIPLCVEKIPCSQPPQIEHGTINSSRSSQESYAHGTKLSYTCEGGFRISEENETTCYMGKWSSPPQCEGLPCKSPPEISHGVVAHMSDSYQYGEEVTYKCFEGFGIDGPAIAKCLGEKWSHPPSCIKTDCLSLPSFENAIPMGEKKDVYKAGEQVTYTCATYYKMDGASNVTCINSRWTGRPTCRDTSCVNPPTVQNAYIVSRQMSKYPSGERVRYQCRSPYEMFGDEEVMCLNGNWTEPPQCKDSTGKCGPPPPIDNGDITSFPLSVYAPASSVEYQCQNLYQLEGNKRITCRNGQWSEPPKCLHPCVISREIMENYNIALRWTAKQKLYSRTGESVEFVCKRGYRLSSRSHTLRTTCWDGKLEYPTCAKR

PTX3, sequence (P26022 18-381): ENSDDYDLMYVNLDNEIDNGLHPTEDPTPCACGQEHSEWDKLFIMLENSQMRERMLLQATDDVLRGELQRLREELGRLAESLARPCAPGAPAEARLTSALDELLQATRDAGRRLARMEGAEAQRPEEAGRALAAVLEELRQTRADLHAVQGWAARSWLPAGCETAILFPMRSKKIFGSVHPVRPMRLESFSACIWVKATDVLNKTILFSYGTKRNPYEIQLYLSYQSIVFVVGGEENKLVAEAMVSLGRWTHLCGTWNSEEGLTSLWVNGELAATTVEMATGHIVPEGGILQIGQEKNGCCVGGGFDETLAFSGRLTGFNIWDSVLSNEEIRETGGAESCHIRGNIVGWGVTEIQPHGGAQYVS

Kd: 110 nM
Substance: PTX3 (from UniProt P26022)
